These results are taken from patent US20170342107A1.

Some results are limits rather than exact numbers.

Usually IC50 stands for the concentration needed to halve the response being measured.

Test [1] has as its target mouse melanocortin-3 receptor (mouse) (UniProt P33033). Description: 125I-NDP-MSH competitive displacement, HEK293 cells stably expressing mMC3R.
For test [2] the target is unchanged. Briefly: cell-based or functional assay.
Test [3] addresses mouse melanocortin-4 receptor (mouse) (UniProt P56450). Briefly: cell-based or functional assay.
For test [4] the target is unchanged. Briefly: 125I-NDP-MSH competitive displacement, HEK293 cells stably expressing mMC4R; negative = more potent than control.
For test [5], the target named is mouse melanocortin-3 receptor (mouse) (UniProt P33033). Briefly: 125I-NDP-MSH competitive displacement, HEK293 cells stably expressing mMC3R; negative = more potent than control.
The target in test [6] is mouse melanocortin-4 receptor (mouse) (UniProt P56450). Briefly: 125I-NDP-MSH competitive displacement, HEK293 cells stably expressing mMC4R.
Test [7] shares this target. Briefly: 125I-NDP-MSH competitive displacement, HEK293 cells stably expressing mMC4R; here negative = weaker binder than SKY4-48-1.

Sequence of mouse melanocortin-3 receptor (mouse) (P33033 whole entry): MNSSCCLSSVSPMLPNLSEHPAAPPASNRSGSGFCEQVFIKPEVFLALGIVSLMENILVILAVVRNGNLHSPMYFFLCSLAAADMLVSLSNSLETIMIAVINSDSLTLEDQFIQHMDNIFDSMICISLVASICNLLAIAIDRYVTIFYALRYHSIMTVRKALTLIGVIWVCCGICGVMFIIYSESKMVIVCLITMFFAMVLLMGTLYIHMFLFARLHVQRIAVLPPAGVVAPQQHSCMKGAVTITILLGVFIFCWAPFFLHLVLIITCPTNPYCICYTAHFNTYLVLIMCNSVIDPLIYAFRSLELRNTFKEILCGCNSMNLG
Sequence of mouse melanocortin-4 receptor (mouse) (P56450 whole entry): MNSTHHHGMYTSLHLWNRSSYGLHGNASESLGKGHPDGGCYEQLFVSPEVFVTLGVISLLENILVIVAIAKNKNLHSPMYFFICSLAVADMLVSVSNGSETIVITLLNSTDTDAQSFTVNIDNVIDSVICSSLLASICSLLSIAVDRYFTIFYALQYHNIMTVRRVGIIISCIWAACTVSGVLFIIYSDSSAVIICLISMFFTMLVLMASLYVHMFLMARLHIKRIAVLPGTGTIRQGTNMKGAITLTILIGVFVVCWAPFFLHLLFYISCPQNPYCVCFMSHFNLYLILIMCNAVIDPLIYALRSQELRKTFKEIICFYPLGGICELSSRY

Turning to “SKY4-48-18, Ac-Arg-Arg-(pI)DPhe-Tic-NH2 (peptide)”, the IC50 stood at 550 nM in test [1] and 13 nM in test [6]. For the same substance, the Agonist Activity EC50 was 16 nM in test [2] and above 100 µM in test [3]. The substance further registered an Antagonist Activity K in test [3] of 16 nM. The same substance returned an Antagonist Ki in test [3] of 15 nM. The Fold Diff. (IC50 against SKY4-48-1) is -9 fold in test [4] and -92 fold in test [5].
With “SKY4-48-23, Ac-Phe-Arg-(pI)DPhe-Tic-NH2 (peptide)”, the 50% inhibitory concentration (IC50) in test [1] worked out at 2500 nM; in test [6], 135 nM. The results for the Fold Diff. (IC50 against SKY4-48-1) in test [4] and in test [5] were 1 fold and -20 fold, respectively.
Consider “SKY4-48-42, Ac-Arg-Arg-(pI)DPhe-DNal(2')-NH2 (peptide)”, for which the IC50 worked out at 440 nM in test [1] and 220 nM in test [6]. Moreover, the Agonist Activity EC50 in test [2] is 57 nM; in test [3], above 100 µM. In test [3], this substance displayed an Antagonist Activity K of 400 nM. Besides, the Fold Diff. (IC50 against SKY4-48-1) in test [4] was 2 fold; in test [5] it was -115 fold.
The substance “SKY5-122-1, Ac-DTic-(pI)Phe-DArg-DHis-NH2 (peptide)” returned a Fold Diff. (IC50 against SKY4-48-1) in test [7] of -55 fold. In test [1], this substance had a Fold Diff. (IC50 against SKY4-48-1) of 64 fold and a half-maximal inhibitory concentration (IC50) of 800 nM. In test [2], this substance yielded an Agonist Activity EC50 above 100000 nM, an Antagonist Activity K of 63 nM and a pA2 (antagonist) of 7.2 pA2. In test [3], this substance had an Agonist Activity, % stimulation relative to maximum of 42 % @ 100 µM; an Agonist, % of NDP-MSH maximal response of 42 % @ 100 µM; an Antagonist Ki above 3100 nM; a pA2 (antagonist) of 5.5 pA2. Also, in test [6], the IC50 amounted to 6700 nM.
For “SKY6-24-2, Ac-His-Arg-(pI)DPhe-Tic-NH2 (peptide)”, the concentration for half-maximal inhibition (IC50) in test [1] is 975 nM; in test [6], 83 nM. Moreover, the Agonist Activity EC50 in test [2] was 40 nM; in test [3] it was above 100 µM. The fold increase in agonist potency against SKY5-146-7 in test [2] is 12 fold. In test [3], this substance gave an Antagonist Activity K of 100 nM. The substance further showed a pA2 (antagonist) in test [3] of 7 pA2. Besides, the Fold Diff. (IC50 against SKY4-48-1) in test [4] is 1 fold; in test [5], -52 fold.
Turning to “SKY6-24-3, Ac-DNal(2')-Arg-(pI)DPhe-Tic-NH2 (peptide)”, the figures for the half-maximal inhibitory concentration (IC50) in test [1] and in test [6] were 420 nM and 43 nM, respectively. Also, the Agonist, % of NDP-MSH maximal response in test [3] came to 32 % @ 100 µM. In addition, the Fold Diff. (IC50 against SKY4-48-1) in test [4] was -3 fold; in test [5] it was -120 fold.
